Laboratory results as given in patent publication US20200024322A1 (Eli Lilly, published 2020).
Where a chain is given by its changes, count along the chain named. Numbered stars: 1 amine (or outer) side, 2 acyl side, 3 side chain; on linkers, the order of the positions; unused ones are H or OH. Square brackets hold non-standard residues; d marks the D form. Side chains are listed from the residue outwards. Ends that are not written are not given here. * marks the point of attachment. C20 diacid = O=C(O)CCCCCCCCCCCCCCCCCCC(=O)*; γGlu = O=C(O)[C@H](CCC(=O)[*:2])N[*:1]; AEEA = NCCOCCOCC(=O)O; Aib = CC(C)(N)C(=O)O

T1: human GIP receptor (human, UniProt P48546 22-466)
T1 construct: whole, on cells; Used as crude membranes of stably transfected CHO cells; also called hGIPR
T1 sequence (looked up): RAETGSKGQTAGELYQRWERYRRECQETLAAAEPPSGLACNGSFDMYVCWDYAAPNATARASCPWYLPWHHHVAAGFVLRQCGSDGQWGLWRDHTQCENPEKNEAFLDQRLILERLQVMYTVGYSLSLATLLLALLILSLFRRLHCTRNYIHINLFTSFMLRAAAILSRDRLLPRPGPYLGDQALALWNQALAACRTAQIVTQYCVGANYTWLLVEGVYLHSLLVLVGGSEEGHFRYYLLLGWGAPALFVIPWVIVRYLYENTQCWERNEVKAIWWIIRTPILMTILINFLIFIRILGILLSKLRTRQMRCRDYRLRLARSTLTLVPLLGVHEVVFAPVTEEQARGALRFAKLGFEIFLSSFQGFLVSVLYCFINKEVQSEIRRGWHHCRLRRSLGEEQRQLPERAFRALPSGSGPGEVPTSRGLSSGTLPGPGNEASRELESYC

B1: Example 29 (peptide)
peptide: Y[Aib]EGTFTSDYSILLDK([AEEA-AEEA-γGlu-C20 diacid])IAQ[Aib]AFIEYLIEGGPSSGAPPPS-NH2
modifications: N-terminus assumed
SMILES: CC[C@H](C)[C@H](NC(=O)[C@H](CCCCNC(=O)COCCOCCNC(=O)COCCOCCNC(=O)CC[C@H](NC(=O)CCCCCCCCCCCCCCCCCCC(=O)O)C(=O)O)NC(=O)[C@H](CC(=O)O)NC(=O)[C@H](CC(C)C)NC(=O)[C@H](CC(C)C)NC(=O)[C@@H](NC(=O)[C@H](CO)NC(=O)[C@H](Cc1ccc(O)cc1)NC(=O)[C@H](CC(=O)O)NC(=O)[C@H](CO)NC(=O)[C@@H](NC(=O)[C@H](Cc1ccccc1)NC(=O)[C@@H](NC(=O)CNC(=O)[C@H](CCC(=O)O)NC(=O)C(C)(C)NC(=O)[C@@H](N)Cc1ccc(O)cc1)[C@@H](C)O)[C@@H](C)O)[C@@H](C)CC)C(=O)N[C@@H](C)C(=O)N[C@@H](CCC(N)=O)C(=O)NC(C)(C)C(=O)N[C@@H](C)C(=O)N[C@@H](Cc1ccccc1)C(=O)N[C@H](C(=O)N[C@@H](CCC(=O)O)C(=O)N[C@@H](Cc1ccc(O)cc1)C(=O)N[C@@H](CC(C)C)C(=O)N[C@H](C(=O)N[C@@H](CCC(=O)O)C(=O)NCC(=O)NCC(=O)N1CCC[C@H]1C(=O)N[C@@H](CO)C(=O)N[C@@H](CO)C(=O)NCC(=O)N[C@@H](C)C(=O)N1CCC[C@H]1C(=O)N1CCC[C@H]1C(=O)N1CCC[C@H]1C(=O)N[C@@H](CO)C(N)=O)[C@@H](C)CC)[C@@H](C)CC
B2: Example 7 (peptide)
peptide: Y[Aib]EGTFTSDYSILLDSK([AEEA-AEEA-γGlu-C20 diacid])AQ[Aib]AFIEYLLEGGPSSGAPPPS-NH2
modifications: N-terminus assumed
SMILES: CC[C@H](C)[C@H](NC(=O)[C@H](Cc1ccccc1)NC(=O)[C@H](C)NC(=O)C(C)(C)NC(=O)[C@H](CCC(N)=O)NC(=O)[C@H](C)NC(=O)[C@H](CCCCNC(=O)COCCOCCNC(=O)COCCOCCNC(=O)CC[C@H](NC(=O)CCCCCCCCCCCCCCCCCCC(=O)O)C(=O)O)NC(=O)[C@H](CO)NC(=O)[C@H](CC(=O)O)NC(=O)[C@H](CC(C)C)NC(=O)[C@H](CC(C)C)NC(=O)[C@@H](NC(=O)[C@H](CO)NC(=O)[C@H](Cc1ccc(O)cc1)NC(=O)[C@H](CC(=O)O)NC(=O)[C@H](CO)NC(=O)[C@@H](NC(=O)[C@H](Cc1ccccc1)NC(=O)[C@@H](NC(=O)CNC(=O)[C@H](CCC(=O)O)NC(=O)C(C)(C)NC(=O)[C@@H](N)Cc1ccc(O)cc1)[C@@H](C)O)[C@@H](C)O)[C@@H](C)CC)C(=O)N[C@@H](CCC(=O)O)C(=O)N[C@@H](Cc1ccc(O)cc1)C(=O)N[C@@H](CC(C)C)C(=O)N[C@@H](CC(C)C)C(=O)N[C@@H](CCC(=O)O)C(=O)NCC(=O)NCC(=O)N1CCC[C@H]1C(=O)N[C@@H](CO)C(=O)N[C@@H](CO)C(=O)NCC(=O)N[C@@H](C)C(=O)N1CCC[C@H]1C(=O)N1CCC[C@H]1C(=O)N1CCC[C@H]1C(=O)N[C@@H](CO)C(N)=O
B3: Example 9 (peptide)
peptide: Y[Aib]EGTFTSDYSILLDSK([AEEA-AEEA-γGlu-C20 diacid])AQ[Aib]AFIEYLIEGGPSSGAPPPS-NH2
modifications: N-terminus assumed
SMILES: CC[C@H](C)[C@H](NC(=O)[C@H](CC(C)C)NC(=O)[C@H](Cc1ccc(O)cc1)NC(=O)[C@H](CCC(=O)O)NC(=O)[C@@H](NC(=O)[C@H](Cc1ccccc1)NC(=O)[C@H](C)NC(=O)C(C)(C)NC(=O)[C@H](CCC(N)=O)NC(=O)[C@H](C)NC(=O)[C@H](CCCCNC(=O)COCCOCCNC(=O)COCCOCCNC(=O)CC[C@H](NC(=O)CCCCCCCCCCCCCCCCCCC(=O)O)C(=O)O)NC(=O)[C@H](CO)NC(=O)[C@H](CC(=O)O)NC(=O)[C@H](CC(C)C)NC(=O)[C@H](CC(C)C)NC(=O)[C@@H](NC(=O)[C@H](CO)NC(=O)[C@H](Cc1ccc(O)cc1)NC(=O)[C@H](CC(=O)O)NC(=O)[C@H](CO)NC(=O)[C@@H](NC(=O)[C@H](Cc1ccccc1)NC(=O)[C@@H](NC(=O)CNC(=O)[C@H](CCC(=O)O)NC(=O)C(C)(C)NC(=O)[C@@H](N)Cc1ccc(O)cc1)[C@@H](C)O)[C@@H](C)O)[C@@H](C)CC)[C@@H](C)CC)C(=O)N[C@@H](CCC(=O)O)C(=O)NCC(=O)NCC(=O)N1CCC[C@H]1C(=O)N[C@@H](CO)C(=O)N[C@@H](CO)C(=O)NCC(=O)N[C@@H](C)C(=O)N1CCC[C@H]1C(=O)N1CCC[C@H]1C(=O)N1CCC[C@H]1C(=O)N[C@@H](CO)C(N)=O
B4: Example 8 (peptide)
peptide: YXEGTFTSDYSILLDKKAQXAFIEYLIEGGPSSGAPPPS
modifications: Aib2; K17((2-[2-(2-Amino-ethoxy)-ethoxy]-acetyl)2-(γ-Glu)-CO-(CH2)18-CO2H); Aib20; C-terminal NH2
B5: Example 6 (peptide)
peptide: Y[Aib]EGTFTSDYSILLDKK([AEEA-AEEA-γGlu-C20 diacid])AQ[Aib]AFIEYLLEGGPSSGAPPPS-NH2
modifications: N-terminus assumed
SMILES: CC[C@H](C)[C@H](NC(=O)[C@H](Cc1ccccc1)NC(=O)[C@H](C)NC(=O)C(C)(C)NC(=O)[C@H](CCC(N)=O)NC(=O)[C@H](C)NC(=O)[C@H](CCCCNC(=O)COCCOCCNC(=O)COCCOCCNC(=O)CC[C@H](NC(=O)CCCCCCCCCCCCCCCCCCC(=O)O)C(=O)O)NC(=O)[C@H](CCCCN)NC(=O)[C@H](CC(=O)O)NC(=O)[C@H](CC(C)C)NC(=O)[C@H](CC(C)C)NC(=O)[C@@H](NC(=O)[C@H](CO)NC(=O)[C@H](Cc1ccc(O)cc1)NC(=O)[C@H](CC(=O)O)NC(=O)[C@H](CO)NC(=O)[C@@H](NC(=O)[C@H](Cc1ccccc1)NC(=O)[C@@H](NC(=O)CNC(=O)[C@H](CCC(=O)O)NC(=O)C(C)(C)NC(=O)[C@@H](N)Cc1ccc(O)cc1)[C@@H](C)O)[C@@H](C)O)[C@@H](C)CC)C(=O)N[C@@H](CCC(=O)O)C(=O)N[C@@H](Cc1ccc(O)cc1)C(=O)N[C@@H](CC(C)C)C(=O)N[C@@H](CC(C)C)C(=O)N[C@@H](CCC(=O)O)C(=O)NCC(=O)NCC(=O)N1CCC[C@H]1C(=O)N[C@@H](CO)C(=O)N[C@@H](CO)C(=O)NCC(=O)N[C@@H](C)C(=O)N1CCC[C@H]1C(=O)N1CCC[C@H]1C(=O)N1CCC[C@H]1C(=O)N[C@@H](CO)C(N)=O
B6: Example 139 (peptide)
peptide: B4 peptide with F6X, L13X, A21T
modifications: Aib2; αMeF6; αMeL13; K17((2-[2-(2-Amino-ethoxy)-ethoxy]-acetyl)2-(γ-Glu)-CO-(CH2)18-CO2H); Aib20; C-terminal NH2
B7: Example 134 (peptide)
peptide: XXEGTXTSDYSIXLDEKAQXEFIEYLIEGGPSSGAPPPS
modifications: DesTyr1; Aib2; αMeF(2F)6; αMeL13; K17((2-[2-(2-Amino-ethoxy)-ethoxy]-acetyl)2-(γ-Glu)-CO-(CH2)18-CO2H); Aib20; C-terminal NH2
B8: Example 13 (peptide)
peptide: Y[Aib]EGTFTSDYSILLD[Aib]IAQK([AEEA-AEEA-γGlu-C20 diacid])AFIEYLIEGGPSSGAPPPS-NH2
modifications: N-terminus assumed
SMILES: CC[C@H](C)[C@H](NC(=O)[C@H](CC(C)C)NC(=O)[C@H](Cc1ccc(O)cc1)NC(=O)[C@H](CCC(=O)O)NC(=O)[C@@H](NC(=O)[C@H](Cc1ccccc1)NC(=O)[C@H](C)NC(=O)[C@H](CCCCNC(=O)COCCOCCNC(=O)COCCOCCNC(=O)CC[C@H](NC(=O)CCCCCCCCCCCCCCCCCCC(=O)O)C(=O)O)NC(=O)[C@H](CCC(N)=O)NC(=O)[C@H](C)NC(=O)[C@@H](NC(=O)C(C)(C)NC(=O)[C@H](CC(=O)O)NC(=O)[C@H](CC(C)C)NC(=O)[C@H](CC(C)C)NC(=O)[C@@H](NC(=O)[C@H](CO)NC(=O)[C@H](Cc1ccc(O)cc1)NC(=O)[C@H](CC(=O)O)NC(=O)[C@H](CO)NC(=O)[C@@H](NC(=O)[C@H](Cc1ccccc1)NC(=O)[C@@H](NC(=O)CNC(=O)[C@H](CCC(=O)O)NC(=O)C(C)(C)NC(=O)[C@@H](N)Cc1ccc(O)cc1)[C@@H](C)O)[C@@H](C)O)[C@@H](C)CC)[C@@H](C)CC)[C@@H](C)CC)C(=O)N[C@@H](CCC(=O)O)C(=O)NCC(=O)NCC(=O)N1CCC[C@H]1C(=O)N[C@@H](CO)C(=O)N[C@@H](CO)C(=O)NCC(=O)N[C@@H](C)C(=O)N1CCC[C@H]1C(=O)N1CCC[C@H]1C(=O)N1CCC[C@H]1C(=O)N[C@@H](CO)C(N)=O

Legend:
human GIP receptor = molecular target: T1, human GIP receptor; assay: SPA, [125I]-GIP displacement, hGIPR membranes
human glucagon receptor = molecular target: T2, human glucagon receptor (human, UniProt P47871 26-477); assay: SPA, [125I]-Gcg displacement, hGcgR membranes
T2 construct: whole, on cells; Used as crude membranes of stably transfected HEK293 cells; also called hGcgR; hGLcgR

human GLP-1 receptor = molecular target: T3, human GLP-1 receptor (human, UniProt P43220 24-463); assay: SPA, [125I]-GLP-1 displacement, hGLP-1R membranes
T3 construct: whole, on cells; Used as crude membranes of stably transfected HEK293 cells; also called hGLP1R; hGLP-1R

T2 sequence (P47871 26-477): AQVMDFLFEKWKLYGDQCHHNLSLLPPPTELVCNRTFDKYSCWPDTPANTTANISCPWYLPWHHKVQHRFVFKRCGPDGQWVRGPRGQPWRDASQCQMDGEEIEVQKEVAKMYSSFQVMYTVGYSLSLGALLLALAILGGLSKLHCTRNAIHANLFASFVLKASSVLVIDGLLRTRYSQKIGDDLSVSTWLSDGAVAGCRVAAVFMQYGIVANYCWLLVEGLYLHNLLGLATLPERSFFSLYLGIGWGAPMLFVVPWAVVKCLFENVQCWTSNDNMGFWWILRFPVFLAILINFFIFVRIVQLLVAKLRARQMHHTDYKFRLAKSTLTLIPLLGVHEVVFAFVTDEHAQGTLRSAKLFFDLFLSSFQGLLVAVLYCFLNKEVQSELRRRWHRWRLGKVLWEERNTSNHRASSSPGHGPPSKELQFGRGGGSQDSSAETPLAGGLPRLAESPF

| Binder | Ki (human GIP receptor) [nM] | Ki (human glucagon receptor) [nM] | Ki (human GLP-1 receptor) [nM] |
| --- | --- | --- | --- |
| B1 | 0.377 | 132 | 8 |
| B2 | 0.252 | 198 | 43.3 |
| B3 | 0.127 | 375 | 14.9 |
| B4 | 0.0772 | 206 | 2.84 |
| B5 | 0.0835 | 55.8 | 6.71 |
| B6 | 0.036 | 105 | – |
| B7 | 0.14 | 60.5 | – |
| B8 | 0.296 | – | 31.1 |
